According to US20240199745A1, “ANTI-EGFR ANTIBODY DRUG CONJUGATES” (priority 2016, published 2024):

How the values were obtained:
[1] = target: human EGFR (huEGFR) over-expressed on mcl-1-/- mouse embryonic fibroblasts (human, UniProt P00533 25-1210); experiment: cell-based or functional assay
[2] = target: EGFR on EGFR positive non-small cell lung cancer cells NCI-H1650 (UniProt P00533 25-1210); experiment: cell-based or functional assay

B1: AbG-LB (antibody, human IgG1, kappa, V domains shown)
VH: EVQLQESGPGLVKPSQTLSLTCTVSGYSISNDFAWNWIRQLPGKGLEWMGYISYKGNTRYQPSLKSRITISRDTSKNQFFLKLNSVTAADTATYYCVTASRGLPYWGQGTLVTVSS
VL: DIQMTQSPSSMSVSVGDRVTITCHSSQDITYNIGWLQQKPGKSFKGLIYHGANLDDGVPSRFSGSGSGTDYTLTISSLQPEDFATYYCVQYDEFPWTFGGGTKLEIKR
modifications: synthon LB on reduced interchain cysteines; average DAR 2.5 per ADC
- huEGFR+ mcl-1-/- MEF EC50 [1]: 0.024 µM
- H1650 CTG-3D EC50 [2]: 1.68 µg/mL
- H1650 GFP Flourescence EC50 [2]: 1.62 µg/mL

B2: AbK-LB (antibody, human IgG1, kappa, V domains shown)
VH: EVQLQESGPGLVKPSQTLSLTCTVSGYSISRDFAWNWIRQPPGKGLEWMGYISYNGNTRYQPSLKSRITISRDTSKNQFFLKLNSVTAADTATYYCVTASRGFPWWGQGTLVTVSS
VL: DIQMTQSPSSMSVSVGDRVTITCHSSQDITYNVGWLQQKPGKSFKGLIYHGSNLDHGVPSRFSGSGSGTDYTLTISSLQPEDFATYYCVQYDDFPWTFGGGTKLEIKR
modifications: synthon LB on reduced interchain cysteines; average DAR 1.8 per ADC
- huEGFR+ mcl-1-/- MEF EC50 [1]: 0.017 µM
- H1650 CTG-3D EC50 [2]: 1.23 µg/mL
- H1650 GFP Flourescence EC50 [2]: 1.33 µg/mL

B3: AbK-WD (antibody, human IgG1, kappa, V domains shown)
VH: EVQLQESGPGLVKPSQTLSLTCTVSGYSISRDFAWNWIRQPPGKGLEWMGYISYNGNTRYQPSLKSRITISRDTSKNQFFLKLNSVTAADTATYYCVTASRGFPWWGQGTLVTVSS
VL: DIQMTQSPSSMSVSVGDRVTITCHSSQDITYNVGWLQQKPGKSFKGLIYHGSNLDHGVPSRFSGSGSGTDYTLTISSLQPEDFATYYCVQYDDFPWTFGGGTKLEIKR
modifications: synthon WD on reduced interchain cysteines; average DAR 1.7 per ADC
- huEGFR+ mcl-1-/- MEF EC50 [1]: 0.035 µM
- H1650 CTG-3D EC50 [2]: 4.36 µg/mL
- H1650 GFP Flourescence EC50 [2]: 2.57 µg/mL

B4: AbA-ZZ (antibody, human IgG1, kappa, V domains shown)
VH: EVQLQESGPGLVKPSQTLSLTCTVSGYSISRDFAWNWIRQPPGKGLEWMGYISYNGNTRYQPSLKSRITISRDTSKNQFFLKLNSVTAADTATYYCVTASRGFPYWGQGTLVTVSS
VL: DIQMTQSPSSMSVSVGDRVTITCHSSQDINSNIGWLQQKPGKSFKGLIYHGTNLDDGVPSRFSGSGSGTDYTLTISSLQPEDFATYYCVQYAQFPWTFGGGTKLEIKR
modifications: synthon ZZ on reduced interchain cysteines; average DAR 1.3 per ADC
- huEGFR+ mcl-1-/- MEF EC50 [1]: 0.186 µM
- H1650 CTG-3D EC50 [2]: 1.86 µg/mL
- H1650 GFP Flourescence EC50 [2]: 1.18 µg/mL

B5: AbA-ZT (antibody, human IgG1, kappa, V domains shown)
VH: EVQLQESGPGLVKPSQTLSLTCTVSGYSISRDFAWNWIRQPPGKGLEWMGYISYNGNTRYQPSLKSRITISRDTSKNQFFLKLNSVTAADTATYYCVTASRGFPYWGQGTLVTVSS
VL: DIQMTQSPSSMSVSVGDRVTITCHSSQDINSNIGWLQQKPGKSFKGLIYHGTNLDDGVPSRFSGSGSGTDYTLTISSLQPEDFATYYCVQYAQFPWTFGGGTKLEIKR
modifications: synthon ZT on reduced interchain cysteines; average DAR 2 per ADC
- huEGFR+ mcl-1-/- MEF EC50 [1]: 0.104 µM
- H1650 CTG-3D EC50 [2]: 0.35 µg/mL
- H1650 GFP Flourescence EC50 [2]: 1.13 µg/mL
